Experimental data reported in the RNAGym collection of RNA variant scans (doi:10.1073/pnas.2313332121).

B1: TPR t1 (parent)
chain: GACCAAUCUGCCCUCAGAGCUCGAGAACAUCUUCGGAUGCAGAGGAGGCAGGCUUCGGUGGCGCGAUAGCGCCAACGUCCUCAACCUCCAAUGCAUCCCACCACAUGAUGAUGCCUGAAGAGCCUUGGUUUUUUG

Variants of: B1
Assay: polymerase ribozyme fitness, log enrichment relative to wild type (log ratio); higher = more active; in vitro selection for triplet polymerase activity
Method in brief: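 Frozen incubation at −7 °C formed the core of a single, triplicate in vitro selection round applied to PCR-built, transcribed mutant libraries of each subunit of a heterodimeric triplet polymerase ribozyme. Extended constructs were gel-excised, captured with streptavidin beads and amplified by RT-PCR, and input and output libraries were Illumina-sequenced with a filter of ≥10 input reads and ≥1 read per output. Fitness is the logarithm of genotype enrichment relative to wild-type enrichment, with inverse-variance-weighted replicate averaging, and the logarithm is base 2.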

| Variant | polymerase ribozyme fitness (log ratio) |
| --- | --- |
| GACCAAUCUGCCCUCAGAGCUCGAGAACAUCUUCGGAUGCAGAGUAGGCUGGCUUCGGUAGUGCGAUAGCGCCAACGUCCUCAACCUCCAAUGCAUCCCACCACAUGAUGAUGCCUGAAGAGCCUUGGUUUUUUG | -1.75 |
| GACCAAUCUGCCCUCAGAGAUCGAGAACAUCUUCGGUUGCAGAGGAGGCAGGCAUCGGUGGCGCGAUAGCGCCAACGUCCUCAACCUCCAAUGCAUCCCACCACAUGAUGAUGCCUGAAGAGCCUUGGUUUUUUG | -3.54 |
| GACCAAUCUGCUCUCAGAGCUCGAGAACAUCUUCGUAUGCAGAGGAGGCAGGCUUCGGUGGCGCGAUAGCGCCCACGUCCUCAACCUCCAAUGUAUCCCACCACAUGAUGGUGCCAGAAGAGCCUUGGUUUUUUG | -2.62 |
| GACCAAUCUGCCCUCAGAGCUCGAGAACAUCUUCGGGUGCAGAGGAGGCAGGCUUCGGUGUCGCGAUAGCGCCAACGUCCUCAACCUCCAAUGCAUCCCACCACAUGAUGAUGCCUGAAGAGCCUUGGUUUUUUG | -1.33 |
| GACCAAUCUGCCUUCAGAGCUCGAGAACAUCUUCGGAUGCAGAGGAGGCAGGCUUCGGUGGAGCGAUAGCGCCAACGUCCUCAACCUCCAAUGCAUCCCACCACAUGAUGAUGCCUGAAGAGCCUUGGUUUUUUG | -0.888 |
| GACCAAUCUGCCCUCAGAGCUCGUGAACAUCUUCGGAUGCAGAGGAGGCAGGCUUCGGUGGCGCGAUAGCGCCAACGUCCUCAACCUCCAAUGCAUCCCACCACAUGAUGAUGCCUGAAGAUCCUUGGUUUUUUG | -5.4 |
| GACCAAUCUGCCCUCAGAGCUCGAGAACAUCUUCGGAUGCAGAGUAGGCAGGCUUCGGUGGCACGAUAGCGCCAACGUACUCGACCUCCAAUGCAUCCCACCACAUGAUGAUGCCUGAAGAGCCUUGGUUUUUUG | -6.05 |
| GACCAAUCUGCCCUCAGAGCUCGAGAACAUCUUCGGAUGCAGAGGAGGGAGGCUUCGGUGGCGCGAUAGCACCAACGUCCUCAACCUCCAAUGCAUCCCACCACAUGAUGAAGCCUGAAGAGCCUUGGUUUUUUG | -1.11 |
| GACCAAUCUGUCCUCAGAGCUCGAGAACAUCUUCGGAUGCAGAGCAGGCAGGCUUCAGUGUCGCGAUAGCGCCAACGUCCUCAACCUCCAAUGCAUCCCACCACAUGAUGAUGCCUGAAGAGCCUUGGUUUCUUG | -3.81 |
| GACCAAUCUGCCCUCAGAGCUCGAGAACAUCUUCGGAUGCAGAGGAGGCAGGCUUCGGUGGCGCGAUAGCGCCAACGCCCACGACCUCCAAUGCAUCCCACCACAUGAUGAUGCCUGAAGAGCCUUGGUUUUUUG | -0.944 |
| GACCAAUCUGCCCUCAGAGCUCGAGAACAUCUUCGGAUGCAGAGGAGGCAGGCUUCUGUGGCGCGAUAGCGCCAACGUCCUCAACCUCUAAUGCAUCCCACCACAUGAUGAUGCCUGAAGAGCCUUGGUUUUUUG | -0.78 |
| GACCAAUCUGCCCUCAGAGCUCGAGAACAUCUUCGGAUGCAGAGGAGGCAGUCUUCGGUGGCGCGAUAGCGCCAACGUCCUCUACCUCCAAUGCAUCCCACCACAUGAUGAUGCCUGAAGAGCCUUAGUUUUUUG | -3.16 |
| GACCAAUCUGCCCUCAGAGCUCGAGAACAUCUACGGAUGCAGAGGAGGCAGGCUUCGGUGGCGCGAUAGCGCCAACGUCCUCAACUUCCAAUGCAUCCCACCACAUGAUGAUGCCUGAAGAGCCUUGGUUUUUUG | -4.21 |
| GACCAAUCUGCCCUCAUAGCUCGAGAACAUCUUCGGAUGCAGAGGAGGCAGGCUUCGGUGGCGCGAUAGCGCCAACGUCCUCAACCUCCAAUGCAUCCCACCACAUGAUGAUGCCUGUAGAGCCUUGGUUUUUUG | -3.56 |
| GACCAAUCUGCCCUCAGAGCUCGAGAACAUCUUCGGAUGCAGAGGAGGCAGGCUUCGGUAGCGCGAUAGCGCCAACGUCCUCAACCUCUAAUGCAUCCCACCACAUGAUGAUGCCUGAAGAGCAUUGGUUUUUUG | 0.913 |
| GGCCAAUCUGCCCUCAGAGCUCGAGAAUAUCUUCGGAUGCAGAGGAGGCAGGCUUCGGUGGCGCGAUAGCGCCAACGUCCUCAACCUCCAAUGCAUCCCACCACAUGAUGAUGCCUGAAGAGCCUUGGUUUUUUG | -2.27 |
| GACCAAUCUGCCCUCAGAGCUCGAGAACAUCUUCGGAUGCAGAGGAGGCAGGCUUCGGUGGCGCGAUAGCGCCAACGUCCUCAACCUCCAAUGCAUCCUACCACAUGAUGAUGCCUGAAGAGCCUUGGGUUUUUG | -3.83 |
| GACCAAUCUGCCCUCAGAGCUCGAGAACAUCUUCGGAUGCAGAGGAGGCAGGCUUCGGUGUCGCGAUAGCGCCAACGUCCUCAACCGCCAAUGCAUCCCACCACAUGAUGAUGCCUGAAGAGCCUUGGUUUUUUG | 0.809 |
| GACCAAUCUGCUCUCAGAGCUCGAGAACAUCUUCGGAUGCAAAGGAGGCAGGCUUCGGUGGCGCGAUAGCGCCAACGUCCUCAACCUCCAAUGCAUUCCACCACAUGAUGAUGCCUGAAGAGCCUUGGUUUUUUG | -3.11 |
| GACCAAUCUGCCCUCAGAGCUCGAGAACAUCUUCGGAUGCAAAGGAGGCAGGCUUCGGUGCCGCGAUAGCGCCAACGUCCUCAACCUCCAAUGCAUCCCACCACAUGAUGAUGCCUGAAGAGCCUUGGUUUUUUG | -3.18 |
| GACCAAUCUGCCCUCAGAGCUCGAGAACAUCUUCGGAUGCAGAGGAGUCAGGCUUCGGUGGCGCGAUAGCGGCAACGUCCUCAACCUCCAAUGCAUCCCACCACAUGAUGAUGCCUGAAGAGCCUUGGUUUUUUG | -1.7 |
